For this test, the target named is EV-D68 US/MO/14-18947 viral particles (Enterovirus D68).

“secreted MFSD6-Fc microbody (from UniProt Q6ZSS7 153-280) (Fc fusion)” yielded a survival rate of neonatal ICR mice (n = 9 per group) given 1.0 × 10^7 TCID50 of EV-D68 US/MO/14-18947 pre-incubated with 15 ug secMFSD6 Mb (secCtl Mb group: 11.11%) of 88.9%.
